Assay results from patent US20030114404, “Vascular endothelial growth factor (VEGF) nucleic acid ligand complexes” (Gilead Sciences, Inc., published 2003).
Where a chain is given by its changes, count along the chain named.

B1: VP30.65 (ssRNA)
RNA: GGGAGGACGAUGCGGAAAACGCUUUUCUUGGCCCCCUCGUUGCGCCAGACGACUCGCCCGA
modifications: 2'-F pyrimidines
B2: VP40.11 (ssRNA)
RNA: GGGAGGACGAUGCGGAAGGAAGAUGUUGAUCGUUUGACGUGAUGUGGAUCCGCGUCAGACGACUCGCCCGA
modifications: 2'-F pyrimidines
B3: VP30.67 (ssRNA)
RNA: GGGAGGACGAUGCGGUUAACGGAAUUCUUGGAUACAUAGCAUGGUCAGACGACUCGCCCGA
modifications: 2'-F pyrimidines
B4: VP30.14 (ssRNA)
RNA: GGGAGGACGAUGCGGACUGGGAGAAUCCGAAAAACCUUCACGCGUCAGACGACUCGCCCGA
modifications: 2'-F pyrimidines
B5: t22a (ssRNA)
RNA: GACGAUGCGGUAGGAAGAAUUGGAAGCG
modifications: 2'-F pyrimidines
B6: VP30.23 (ssRNA)
RNA: GGGAGGACGAUGCGGGAGCUUGAAGUUUCAGUAUUGGCACAACCUCAGACGACUCGCCCGA
modifications: 2'-F pyrimidines
B7: VP30.61 (ssRNA)
RNA: B6 RNA with U34C
modifications: 2'-F pyrimidines
B8: VP30.48 (ssRNA)
RNA: B6 RNA with A30G
modifications: 2'-F pyrimidines
B9: t22OMe (OH-12,22) (ssRNA)
RNA: GACGAUGCGGUAGGAAGAAUUGGAAGCGC
modifications: 2'-F pyrimidines, 2'-OMe purines except 2'-OH A12, G22
B10: VP30.11 (ssRNA)
RNA: GGGAGGACGAUGCGGUCAGGAACGGAAUUUUUGGAGACACGCCCUCAGACGACUCGCCCGA
modifications: 2'-F pyrimidines
B11: VP40.18 (ssRNA)
RNA: GGGAGGACGAUGCGGUAGUAAGUUAUUGAAAGCGCAUCUCUAUCAACUCUCGGCCCAGACGACUCGCCCGA
modifications: 2'-F pyrimidines
B12: VP40.5 (ssRNA)
RNA: GGGAGGACGAUGCGGUUGAUCGAGGUUCUAAAGCCUAUUUCCUGACUUUCUCCCCCAGACGACUCGCCCGA
modifications: 2'-F pyrimidines
B13: t44OMe (OH-5,6) (ssRNA)
RNA: GCGGAAUCAGUGAAUGCUUAUACAUCCGC
modifications: 2'-F pyrimidines, 2'-OMe purines except 2'-OH A5, A6
B14: VP40.3 (ssRNA)
RNA: GGGAGGACGAUGCGGCAAAAGUUUGAGUUGAUCUGAUACGUUUCAGUAUUGGCGUCAGACGACUCGCCCGA
modifications: 2'-F pyrimidines
B15: t22b (ssRNA)
RNA: ACGAUGCGGUAGGAAGAAUUGGAAGCGC
modifications: 2'-F pyrimidines except 2'-OH C28
B16: VP30.18 (ssRNA)
RNA: GGGAGGACGAUGCGGAUCCAUCAUUUAACCGUUUGCUCUCCCCCUCAGACGACUCGCCCGA
modifications: 2'-F pyrimidines
B17: t22OMe (OH-10,12) (ssRNA)
RNA: GACGAUGCGGUAGGAAGAAUUGGAAGCGC
modifications: 2'-F pyrimidines, 2'-OMe purines except 2'-OH G10, A12
B18: t2c (ssRNA)
RNA: GAACCGAUGGAAUUUUUGGACGCUC
modifications: 2'-F pyrimidines, N26 = 3'-3' inverted dT [26 = 3'-3' inverted dT (N replaced by T); 2'-F pyrimidines at 4,5,8,13,14,15,16,17,21,23,24,25]
B19: VP30.58 (ssRNA)
RNA: GGGAGGACGAUGCGGCAACUAUUCGUUGAUGUUUCCGUGAGCCGUCAGACGACUCGCCCGA
modifications: 2'-F pyrimidines
B20: t44a (ssRNA)
RNA: CGGAAUCAGUGAAUGCUUAUACAUCCG
modifications: 2'-F pyrimidines
B21: t22OMe (OH-10,12,22) (ssRNA)
RNA: GACGAUGCGGUAGGAAGAAUUGGAAGCGC
modifications: 2'-F pyrimidines, 2'-OMe purines except 2'-OH G10, A12, G22
B22: t22 (ssRNA)
RNA: GACGAUGCGGUAGGAAGAAUUGGAAGCGC
modifications: 2'-F pyrimidines, N30 = 3'-3' inverted dT [30 = 3'-3' inverted dT; all C/U at 1-29 = 2'-F]
B23: t2a (ssRNA)
RNA: GCGAACCGAUGGAAUUUUUGGACGCUCGC
modifications: 2'-F pyrimidines except 2'-OH C29
B24: VP30.6 (ssRNA)
RNA: GGGAGGACGAUGCGGAACGGAAUUCUUGGAUACACACCUCGUCCUCAGACGACUCGCCCGA
modifications: 2'-F pyrimidines
B25: VP40.24 (ssRNA)
RNA: GGGAGGACGAUGCGGGAUGCUGAGUGAGGAAGUCUGAUUGUUGCAGUAUUGGCGUCAGACGACUCGCCCGA
modifications: 2'-F pyrimidines
B26: t22d (ssRNA)
RNA: CGGUAGGAAGAAUUGGAAGCGC
modifications: 2'-F pyrimidines except 2'-OH C22
B27: t44b (ssRNA)
RNA: GGAAUCAGUGAAUGCUUAUACAUCC
modifications: 2'-F pyrimidines except 2'-OH C25
B28: t22OMe (OH-10,22) (ssRNA)
RNA: GACGAUGCGGUAGGAAGAAUUGGAAGCGC
modifications: 2'-F pyrimidines, 2'-OMe purines except 2'-OH G10, G22
B29: VP30.63 (ssRNA)
RNA: GGGAGGACGAUGCGGAACCAAUAGAGAUCUUCGGCUGCCCCGCGUCAGACGACUCGCCCGA
modifications: 2'-F pyrimidines
B30: t44 (ssRNA)
RNA: GCGGAAUCAGUGAAUGCUUAUACAUCCGC
modifications: 2'-F pyrimidines, N30 = 3'-3' inverted dT [30 = 3'-3' inverted dT (N replaced by T); 2'-F pyrimidines at 2,7,8,11,15,17,18,19,21,23,25,26,27,29]
B31: VP30.35 (ssRNA)
RNA: GGGAGGACGAUGCGGUGAAUGAGCUGACGACCCUGAAUUGCUCGUCAGACGACUCGCCCGA
modifications: 2'-F pyrimidines
B32: VP40.2 (ssRNA)
RNA: GGGAGGACGAUGCGGAUCUGUGAACUGGGUUUUUGCCGACGGUUACGCUUUUGCUCAGACGACUCGCCCGA
modifications: 2'-F pyrimidines
B33: VP30.20 (ssRNA)
RNA: GGGAGGACGAUGCGGUUGAUCGGACGUUAGUCAUUUCCCGAUCGUCAGACGACUCGCCCGA
modifications: 2'-F pyrimidines
B34: t2OMe (OH-6,21) (ssRNA)
RNA: GGCGAACCGAUGGAAUUUUUGGACGCUCGCC
modifications: 2'-F pyrimidines, 2'-OMe purines except 2'-OH A6, G21
B35: t2OMe (OH-6) (ssRNA)
RNA: B34 RNA
modifications: 2'-F pyrimidines, 2'-OMe purines except 2'-OH A6
B36: t2OMe (OH-21) (ssRNA)
RNA: B34 RNA
modifications: 2'-F pyrimidines, 2'-OMe purines except 2'-OH G21
B37: VP30.27 (ssRNA)
RNA: GGGAGGACGAUGCGGAAGAAUUGGAUAUAUCGUUCACCCCCACCUCAGACGACUCGCCCGA
modifications: 2'-F pyrimidines
B38: VP40.26 (ssRNA)
RNA: GGGAGGACGAUGCGGACUCAACUGGACGCUAUGUUGACGGUUAUCGCUUUUGGGUCAGACGACUCGCCCGA
modifications: 2'-F pyrimidines
B39: t2b (ssRNA)
RNA: CGAACCGAUGGAAUUUUUGGACGCUCG
modifications: 2'-F pyrimidines
B40: VP30.40 (ssRNA)
RNA: GGGAGGACGAUGCGGAAACGGAAGAAUUGGAUACGCAAGCACGUUCAGACGACUCGCCCGA
modifications: 2'-F pyrimidines
B41: t2d (ssRNA)
RNA: AACCGAUGGAAUUUUUGGACGCU
modifications: 2'-F pyrimidines, N24 = 3'-3' inverted dT [24 = 3'-3' inverted dT (N replaced by T); 2'-F pyrimidines at 3,4,7,12,13,14,15,16,20,22,23]
B42: VP40.36 (ssRNA)
RNA: GGGAGGACGAUGCGGCAGGUUCAGAAUUGGCAGUCGCAUUGAUCUUUUUCACCGCCAGACGACUCGCCCGA
modifications: 2'-F pyrimidines
B43: VP40.25 (ssRNA)
RNA: GGGAGGACGAUGCGGAAUGGAAUUUGAGUCGAUCUAGAAUGCGUCGUAUGGGCUCAGACGACUCGCCCGA
modifications: 2'-F pyrimidines
B44: t22c (ssRNA)
RNA: GCGGUAGGAAGAAUUGGAAGCGC
modifications: 2'-F pyrimidines except 2'-OH C23

What was measured:
Assay in all cases: filter; 37 C
Details in all cases: tags: carrier-free, Sf 21 insect cell expressed, R & D Systems; chain copies: 2 (inferred)
VEGF165 [1] = molecular target: T1, VEGF165 (Homo sapiens, UniProt P15692-4 P15692-4:27-191)
T1 sequence (P15692 other isoform, or with tags, fused parts or gaps): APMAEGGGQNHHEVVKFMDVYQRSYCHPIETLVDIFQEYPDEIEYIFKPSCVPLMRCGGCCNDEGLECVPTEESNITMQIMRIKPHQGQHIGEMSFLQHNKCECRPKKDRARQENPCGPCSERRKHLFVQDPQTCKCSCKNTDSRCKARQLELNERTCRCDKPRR
Experimental: (§1) Nucleic Acid Ligands radiolabeled during transcription by incorporation of α-[³²P]-labeled NTPs, or after synthesis using γ-[³²P]-ATP and T4 polynucleotide kinase, were incubated in low concentration (between 20 and 70 pM) with varying concentrations of VEGF or other growth factors at 37° C. for 15 minutes. Incubations were in TBS, PBS, or HEPES-buffered saline (HBS), pH 7.4, with or without the addition of supplemental divalent cations. Samples were passed through prewashed 0.45 μ Type HA filters (Millipore) followed by a 5-10 ml wash with binding buffer. Filters were immersed in scintillant and counted to quantitate the amount of protein-bound RNA retained by each filter. The equilibrium dissociation constant (KD) of Nucleic Acid Ligand binding to a specific protein was calculated from the data points as described in Green et al. (1996) Biochem. 35: 14413-14424.

VEGF165 [2] = molecular target: T1, VEGF165; remark: listed apart in the source
Experimental: as §1
The shared primary and secondary structural motifs that define each sequence family hint at the minimal sequence elements required for high affinity binding to VEGF. Nested truncations of a representative ligand from each family (indicated by gray boxes in Table 2) were produced by chemical synthesis and their relative affinities for VEGF were determined (Table 3). Truncated versions of ligands VP30.22, VP30.2 and VT30.44 were prepared by chemical synthesis and their affinities for VEGF were determined as described in Example 3. Initial truncations (t22, t2, t44) were further refined by synthesis of oligonucleotides with additional bases lacking from the 5′ and/or 3′ ends. In order to initiate the chemical synthesis, the 3′-most nucleotide of several of the ligands was modified either by substitution of 2′-OH-cytidine for 2′-F-cytidine (underlined) or by addition of a 3′-3′-linked deoxythymidine “cap” (asterisks). The length of each oligonucleotide (minus the cap) and its high affinity KD for binding to VEGF are shown.

VEGF165 [3] = molecular target: T1, VEGF165; remark: listed apart in the source
Experimental: as §1
Stabilization of oligonucleotides to nucleases is likely to be critical to their success as therapeutic or diagnostic agents. Unfortunately, 2′-OMe-modified nucleoside triphosphates are not generally accepted as substrates by RNA polymerases under standard reaction conditions. However, 2′-OMe purines may be introduced into a specific oligonucleotide by chemical synthesis. […] To identify those purine positions for which 2′-OMe substitution is compatible with high affinity binding to VEGF, several syntheses of ligands t2, t22 and t44 were prepared in which five or six purines at a time were partially substituted with the modified nucleotide (described in Example 3). Affinity selection of each partially substituted library was used to isolate those molecules that retained substantial affinity for VEGF.

| Binder | Kd (VEGF165 [1]) | also measured |
| --- | --- | --- |
| B1 | 0.033 nM |  |
| B2 | 0.98 nM |  |
| B3 | 0.024 nM |  |
| B4 | 0.025 nM |  |
| B5 |  | Kd (VEGF165 [2]): 3 nM |
| B6 | 0.063 nM |  |
| B7 | 0.043 nM |  |
| B8 | > 10 nM |  |
| B9 |  | Kd (VEGF165 [3]): 0.09 nM |
| B10 | 0.025 nM |  |
| B11 | 0.012 nM |  |
| B12 | 0.019 nM |  |
| B13 |  | Kd (VEGF165 [3]): 0.04 nM |
| B14 | 2 nM |  |
| B15 |  | Kd (VEGF165 [2]): 0.08 nM |
| B16 | 0.027 nM |  |
| B17 |  | Kd (VEGF165 [3]): 0.02 nM |
| B18 |  | Kd (VEGF165 [2]): 0.2 nM |
| B19 | 0.006 nM |  |
| B20 |  | Kd (VEGF165 [2]): 0.01 nM |
| B21 |  | Kd (VEGF165 [3]): 0.01 nM |
| B22 |  | Kd (VEGF165 [2]): 0.07 nM |

| Binder | Kd (VEGF165 [1]) | also measured |
| --- | --- | --- |
| B23 |  | Kd (VEGF165 [2]): 0.04 nM |
| B24 | 0.02 nM |  |
| B25 | 5 nM |  |
| B26 |  | Kd (VEGF165 [2]): 0.1 nM |
| B27 |  | Kd (VEGF165 [2]): 0.06 nM |
| B28 |  | Kd (VEGF165 [3]): 4 nM |
| B29 | 0.016 nM |  |
| B30 |  | Kd (VEGF165 [2]): 0.01 nM |
| B31 | 0.006 nM |  |
| B32 | 0.035 nM |  |
| B33 | 0.057 nM |  |
| B34 |  | Kd (VEGF165 [3]): 0.06 nM |
| B35 |  | Kd (VEGF165 [3]): 0.5 nM |
| B36 |  | Kd (VEGF165 [3]): 20 nM |
| B37 | 0.4 nM |  |
| B38 | 0.013 nM |  |
| B39 |  | Kd (VEGF165 [2]): 0.1 nM |
| B40 | 0.006 nM |  |
| B41 |  | Kd (VEGF165 [2]): 20 nM |
| B42 | 1.3 nM |  |
| B43 | 0.74 nM |  |
| B44 |  | Kd (VEGF165 [2]): 0.09 nM |
